For this data set, the target named is Factor X (FX), P00742.

Values joined by “and” are separate entries in the source; they are usually repeats but may differ in a detail not shown here. Identical values can stand only once.

Factor X (FX), P00742, sequence (P00742 whole entry, looked up): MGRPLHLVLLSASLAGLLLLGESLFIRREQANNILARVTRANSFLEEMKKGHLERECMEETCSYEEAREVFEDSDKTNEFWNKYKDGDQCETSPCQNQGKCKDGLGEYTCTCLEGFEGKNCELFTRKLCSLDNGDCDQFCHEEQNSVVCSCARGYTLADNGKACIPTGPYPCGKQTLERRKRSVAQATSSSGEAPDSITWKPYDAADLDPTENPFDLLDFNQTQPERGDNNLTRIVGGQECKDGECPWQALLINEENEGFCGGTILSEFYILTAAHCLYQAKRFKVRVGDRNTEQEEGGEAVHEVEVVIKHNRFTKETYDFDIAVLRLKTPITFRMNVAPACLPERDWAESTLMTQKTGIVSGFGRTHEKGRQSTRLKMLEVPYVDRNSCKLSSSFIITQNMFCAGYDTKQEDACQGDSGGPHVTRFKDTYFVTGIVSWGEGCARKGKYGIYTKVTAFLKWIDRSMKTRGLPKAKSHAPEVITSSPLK

B1: FIXa-D203N/F205T/R318Y/E410N (protein)
chain 1: not shown
chain 2: not shown
Consider B1, for which the “% of WT kcat/KM” value is 88% and 85%; the Michaelis constant (KM) was determined as 45.7 nM; the KM for FX activation by FIXa in the Xase complex (FVIIIa/PC-PS/Ca2+), fluorogenic Spectrafluor FXa assay came out at 45.7 nM; the turnover number (kcat) turned out to be 1.6 s⁻¹.

B2: FIXa-A103N/N105S/R318Y/R338E/R403E/E410N (protein)
chain 1: not shown
chain 2: not shown
With B2, the “% of WT kcat/KM” value is 327% and 318%; the KM came out at 44.7 nM; the KM for FX activation by FIXa in the Xase complex (FVIIIa/PC-PS/Ca2+), fluorogenic Spectrafluor FXa assay was 44.7 nM; the turnover number (kcat) was 5.4 s⁻¹.

B3: FIXa-Y155F/R318Y/R338E/N346D/R403E/E410N (protein)
chain 1: not shown
chain 2: not shown
As to B3, the “% of WT kcat/KM (against Catalyst Biosciences WT FIXa), FX activation in the Xase complex” value (from here on “% of WT kcat/KM … in the Xase complex”) turned out to be 139%; the Michaelis-Menten constant (KM) turned out to be 100 nM; the KM (nM) for activation of FX by FIXa in the Xase complex (FVIIIa, PC/PS vesicles, Ca2+), fluorogenic Spectrafluor FXa assay came out at 100 nM; the kcat/KM for FX activation by FIXa in the Xase complex (FVIIIa, PC/PS vesicles, Ca2+), indirect fluorogenic Spectrafluor FXa assay came out at 6.2e+07 M⁻¹ s⁻¹.

B4: FIXa-Y155F/N260S/R318Y/R338E/R403E/E410N (protein)
chain 1: not shown
chain 2: not shown
On to B4, for which the “% of WT kcat/KM … in the Xase complex” value was 156%; the Michaelis-Menten constant (KM) stood at 83.9 nM; the KM (nM) for activation of FX by FIXa in the Xase complex (FVIIIa, PC/PS vesicles, Ca2+), fluorogenic Spectrafluor FXa assay is 83.9 nM; the kcat/KM for FX activation by FIXa in the Xase complex (FVIIIa, PC/PS vesicles, Ca2+), indirect fluorogenic Spectrafluor FXa assay came to 7e+07 M⁻¹ s⁻¹.

B5: FIXa-Y155F/K247N/N249S/R318Y/R338E/R403E (protein)
chain 1: not shown
chain 2: not shown
In the case of B5, the KM came to 67.3 nM and the kcat is 5.7 s⁻¹.

B6: FIXa-D104N/K106S/Y155F/R318Y/R338E/R403E/E410N (protein)
chain 1: not shown
chain 2: not shown
With B6, the “% of WT kcat/KM” value is 394% and 382%; the KM worked out at 48 nM; the KM for FX activation by FIXa in the Xase complex (FVIIIa/PC-PS/Ca2+), fluorogenic Spectrafluor FXa assay is 48 nM; the kcat amounted to 8.5 s⁻¹.

B7: FIXa-R318Y/R338E/Y345A/N346D/R403E/E410N (protein)
chain 1: not shown
chain 2: not shown
Turning to B7, the KM turned out to be 56.5 nM and the turnover number (kcat) stood at 1.2 s⁻¹.

B8: FIXa-A103N/N105S/Y155F/R318Y/R338E/R403E/E410N (protein)
chain 1: not shown
chain 2: not shown
For the protein B8, the “% of WT kcat/KM” value was 283% and 274%; the KM was found to be 50.7 nM; the KM for FX activation by FIXa in the Xase complex (FVIIIa/PC-PS/Ca2+), fluorogenic Spectrafluor FXa assay is 50.7 nM; the turnover number (kcat) was 6.4 s⁻¹.

B9: FIXa-Y155F/R318Y/R338E/R403E/E410N (protein)
chain 1: not shown
chain 2: not shown
B9: the “% of WT kcat/KM” value was 418% and 406%; the Michaelis constant (KM) is 30.4 nM; the KM for FX activation by FIXa in the Xase complex (FVIIIa/PC-PS/Ca2+), fluorogenic Spectrafluor FXa assay amounted to 30.4 nM; the kcat was found to be 5.3 s⁻¹.

B10: FIXa-D104N/K106S/N260S/R318Y/R338E/R403E/E410N (protein)
chain 1: not shown
chain 2: not shown
As for B10, the “% of WT kcat/KM … in the Xase complex” value was 196%; the KM is 61.1 nM; the KM (nM) for activation of FX by FIXa in the Xase complex (FVIIIa, PC/PS vesicles, Ca2+), fluorogenic Spectrafluor FXa assay came out at 61.1 nM; the kcat/KM for FX activation by FIXa in the Xase complex (FVIIIa, PC/PS vesicles, Ca2+), indirect fluorogenic Spectrafluor FXa assay is 8.8e+07 M⁻¹ s⁻¹.

B11: FIXa-D104N/K106S/R318Y/R338E/R403E/E410N (protein)
chain 1: not shown
chain 2: not shown
As to B11, the “% of WT kcat/KM” value was 377% and 366%; the KM came out at 38.5 nM; the KM for FX activation by FIXa in the Xase complex (FVIIIa/PC-PS/Ca2+), fluorogenic Spectrafluor FXa assay came out at 38.5 nM; the kcat was found to be 5.7 s⁻¹.

B12: FIXa-K247N/N249S/R318Y/R338E/R403E (protein)
chain 1: not shown
chain 2: not shown
Turning to B12, the KM turned out to be 53.6 nM and the kcat stood at 10.5 s⁻¹.

As usually defined, the KM is the substrate concentration at which the rate is half of its maximum. What is called kcat is the number of substrate molecules converted per active site and unit of time at saturation.

Source of the values: patent US11491212.
